In patent publication US20190202901A1:

How the values were obtained:
[1] = target: recombinant human IGF-1R protein (R&D Systems, Cat 391-GR) (human) (UniProt P08069); assay: direct ELISA on rhIGF-1R coating, dose response
[2] = target: recombinant human IGF-1R protein (R&D Systems, Cat 391-GR) (human) (UniProt P08069); assay: direct ELISA, rhIGF-1R coating, antibody at 5 µg/ml
[3] = target: recombinant murine IGF-1R protein (R&D Systems, Cat 6630-GR/Fc) (murine) (UniProt Q60751); assay: direct ELISA, rmIGF-1R coating, antibody at 5 µg/ml
[4] = target: recombinant human IGF-1R protein (R&D Systems, Cat 391-GR) (human) (UniProt P08069); assay: direct ELISA, rhIGF-1R coated, goat anti-mouse IgG-HRP, TMB, OD 450 nm; Prism sigmoidal dose-response (variable slope) fit

EC50 [1]	OD [2]	OD [3]	BOTTOM (best-fit value) [4]	EC50 [4]	LOGEC50 [4]	TOP (best-fit value) [4]	Binder
0.41 nM	2.62 OD 450 nm	0.065 OD 450 nm	0.116 OD (450 nm)	0.417 nM	-9.38 log C [M]	2.44 OD (450 nm)	816C12 (antibody, V domains shown) VH: EVQLQQSGPELVKPGASVKMSCKASGHTFTSYVLHWMKRKPGQGLEWIGYINPHNDVTKYNENFKGKATLTSDKYSSTVYMEVSSLTSEDSAVYYCVSTAYYGNGRYFDVWGAGTTVTVSS VL: DIQMTQTTSSLSASLGDRVTISCRASQDINNYLNWYQQKPDGTVKLLIYYTSRLHSGVSSRFSGSGSGTDYSLTISNLEQEDIATYFCQQGNTLPWTFGGGTKLEIK
0.51 nM	2.14 OD 450 nm	1.29 OD 450 nm	0.0807 OD (450 nm)	0.513 nM	-9.29 log C [M]	2.64 OD (450 nm)	810D12 (antibody, V domains shown) VH: EVQLQQSGPELVKPGASVKMSCKASGHTFTSYMLHWVKQKPGQGLEWLGFINPYNDVTKYNENFKGKATLTSDKSSSTAYMELNSLTSEDSAVYFCVTTAYYGNGRYFDVWGAGTTVTVSS VL: DIQMTQTTSSLSASLGDRVTISCRASQDITNYLTWYQQKPDGTVKVLIYYTSRLYSGVPSRFSGSGSGSDYSLTINNLEQEDIATYFCQQGYSLPWTFGGGTKLEIK
